Data from US20190209659, “STABLE LIQUID FIBRINOGEN” (LABORATOIRE FRANCAIS DU FRACTIONNEMENT ET DES …, published 2019).
Where a chain is given by its changes, count along the chain named.

B1: SEQ ID NO 66 (A5-1.9 base sequence) (ssDNA)
DNA: GGGTCAATGCCAGGTCTCGGACCTGGAATCCGCCACCCGCATTAGAACCAGGGTTGAC
modifications: 5' biotin-triethylene glycol (SPR); 5' amino-C6 spacer and 3' inverted dT (affinity support)
B2: SEQ ID NO 81 variant (ssDNA)
DNA: GTCAATGCCAGGTCTCCCTGGAATCCGCCACCCGCATTAGAACCAGGGTTGAC
B3: SEQ ID NO 85 variant (ssDNA)
DNA: B2 DNA with T15G, C16A
B4: SEQ ID NO 91 variant (ssDNA)
DNA: B2 DNA with G12T, T13C, C14G, T15G, C16A
B5: SEQ ID NO 58 aptamer (ssDNA)
DNA: GGGTCAATGCCAGGTCTCAACTTTCGCGTGTGGTTGGTAGGGCTAGGTGTATACGCATATCGGCTCGCAAGCAGTC
modifications: 5' biotin-triethylene glycol
B6: SEQ ID NO 89 variant (ssDNA)
DNA: GTCAATGCCAGGTCTCGGACCTGGAATCCGCCACCCGCATTAGAACCAGGGTTGA
B7: SEQ ID NO 90 variant (ssDNA)
DNA: GTCAATGCCAGGTCTCGGACCTGGAATCCGCCACCCGCATAGAACCAGGGTTGAC
B8: SEQ ID NO 92 variant (ssDNA)
DNA: B7 DNA with A39T
B9: SEQ ID NO 65 aptamer (ssDNA)
DNA: GGGTCAATGCCAGGTCTCGAGCCGGTGTTGTGTTATGTTGGTAGGGAAGGTGTATAATATCGGCTCGCAAGCAGTC
modifications: 5' biotin-triethylene glycol
B10: SEQ ID NO 87 variant (ssDNA)
DNA: GTCAATGCCAGGTCTCACCTGGAATCCGCCACCCGCATTAGAACCAGGGTTGAC
B11: SEQ ID NO 88 variant (ssDNA)
DNA: B10 DNA with T15G, C16G
B12: SEQ ID NO 1 aptamer (ssDNA)
DNA: GGGTCAATGCCAGGTCTCGGACCTGGAATCCGCCACCCGCATTAGAACCAGGGTTGACATCGGCTCGCAAGCAGTC
modifications: 5' biotin-triethylene glycol
B13: SEQ ID NO 80 variant (deletion 1/2) (ssDNA)
DNA: GTCAATGCCAGGTCTCGGACCTGGAATCCGCCACCCGCATTAGAACCAGGGTTGAC
B14: SEQ ID NO 67 (A5-2.9 base sequence) (ssDNA)
DNA: CGCGTGTGGTTGGTAGGGCTAGGTGTATACGCAT
modifications: 5' biotin-triethylene glycol (SPR); 5' amino-C6 spacer and 3' inverted dT (affinity support)
B15: SEQ ID NO 60 aptamer (ssDNA)
DNA: GGGTCAATGCCAGGTCTCTGCGTACTTATCTCGATGTGGTTGGTAGGGATAGGTGTATATCGGCTCGCAAGCAGTC
modifications: 5' biotin-triethylene glycol
B16: SEQ ID NO 83 variant (ssDNA)
DNA: GTCAATGCCAGGTCTCCTGGAATCCGCCACCCGCATTAGAACCAGGGTTGAC
B17: SEQ ID NO 86 variant (ssDNA)
DNA: B16 DNA with T15G
B18: SEQ ID NO 93 variant (ssDNA)
DNA: B16 DNA with G12C, T13G, C14G, T15A
B19: SEQ ID NO 84 variant (ssDNA)
DNA: B16 DNA with T15A

Key:
fibrinogen (plasma) [1] = molecular target: T1, fibrinogen (plasma) (Homo sapiens, UniProt P02671-2;P02675;P02679-2 P02671-2:20-644,P02675:31-491,P02679-2:27-437); assay: SPR; dose-dependent 125-1000 nM, pH 6.3, MOPS, NaCl 150 mM, MgCl2 5 mM; resists 0.5 M NaCl, eluted at pH 7.4; conditions: tags: human plasma purified, 95% or 99.9% purity; semi-purified and plasma used in chromatography; chain copies: 2
Experimental: (§1) Each solution of human plasma fibrinogen was injected at pH 6.3 in such a way that a complex was formed in a dose-dependent manner as shown by the increase in the signals depending on the concentration of fibrinogen. […] The fibrinogen was then released from the complex by an elution buffer at pH 7.40. The solid support was then regenerated by injection of a solution of NaOH 50 mM. X-axis: time in s. Y-axis: SPR response in arbitrary unit.
(§2) The chosen aptamer was synthesised with biotin and a spacer of triethylene glycol at the end 5′ of the oligonucleotide. A solution 1 μM of the aptamer was prepared using the SELEX selection buffer. The aptamer solution was heated to 90° C. for 5 min, incubated in ice for 5 min and balanced at the ambient temperature for 10 min. The preparation was injected into a sensor chip coated with streptavidin SA from Biocore T200 instrument (GE Healthcare) at a debit of […] for 7 min. Then, various concentrations of the target were injected onto the immobilised aptamer at a rate of 30 μl/min for 1 minute. After a dissociation for 1-2 min, a step of washing was carried out via injection of a suitable wash buffer at a rate of 30 μl/min for 1 min. For the elution, a suitable elution buffer was injected at a rate of 30 μl/min for 1-2 min. […] During the experiment, the response signal was recorded in a sensorgram.

[2] = molecular target: T2, fibrinogen (transgenic, human) (Homo sapiens, UniProt P02671-2;P02675;P02679-2 P02671-2:20-644,P02675:31-491,P02679-2:27-437); assay: SPR; dose-dependent 125-1000 nM, pH 6.3; resists 0.5 M NaCl, eluted at pH 7.4; conditions: tags: purified from transgenic cow milk, 97% purity; chain copies: 2
Experimental: as §1, with “transgenic” for “human plasma”
as §2

fibrinogen (plasma) [3] = molecular target: T1, fibrinogen (plasma); assay: competition; 2 uM variant with 0.4 uM fibrinogen over immobilised SEQ 66 (SPR); among highest affinity; conditions: tags: human plasma purified, 95% or 99.9% purity; semi-purified and plasma used in chromatography; chain copies: 2
Experimental: (§3) In order to compare the affinity of the designed variants with that of the parental aptamer, a concurrent test was conducted. Firstly, a 1 μM solution of the aptamer of SEQ ID NO 66 was prepared using binding buffer. The aptamer solution was heated to 90° C. for 5 min, incubated in ice for 5 min and balanced at the ambient temperature for 10 min. The preparation was injected into a sensor chip coated with streptavidin SA from Biacore T200 instrument (GE Healthcare) at a rate of 10 μl/min for 7 min. Then, mixtures containing a variant (2 μM) and the human plasma fibrinogen (0.4 μM) were injected on the aptamer immobility at a rate of 30 μl/min for 1 minute. The response obtained for the various fragment/fibrinogen mixtures was compared.

fibrinogen (plasma) [4] = molecular target: T1, fibrinogen (plasma); assay: competition; significant inhibition of fibrinogen binding to immobilised SEQ 66 (SPR); conditions: tags: human plasma purified, 95% or 99.9% purity; semi-purified and plasma used in chromatography; chain copies: 2
Experimental: as §3

[5] = molecular target: T2, fibrinogen (transgenic, human); assay: SPR; stated strong affinity, pH-dependent; conditions: tags: purified from transgenic cow milk, 97% purity; chain copies: 2
fibrinogen (plasma) [6] = molecular target: T1, fibrinogen (plasma); assay: SPR; stated strong affinity, pH-dependent; conditions: tags: human plasma purified, 95% or 99.9% purity; semi-purified and plasma used in chromatography; chain copies: 2
[7] = molecular target: T2, fibrinogen (transgenic, human); assay: SPR; stated strong affinity for plasma and transgenic fibrinogen, pH 6.3; conditions: tags: purified from transgenic cow milk, 97% purity; chain copies: 2
fibrinogen (plasma) [8] = molecular target: T1, fibrinogen (plasma); assay: SPR; 250 nM fibrinogen, pH 6.3; resists 0.5 M NaCl; conditions: tags: human plasma purified, 95% or 99.9% purity; semi-purified and plasma used in chromatography; chain copies: 2
fibrinogen (plasma) [9] = molecular target: T1, fibrinogen (plasma); assay: SPR; dose-dependent 125-1000 nM, pH 6.3; resists 1 M NaCl, eluted at pH 7.4 with 2 M MgCl2; conditions: tags: human plasma purified, 95% or 99.9% purity; semi-purified and plasma used in chromatography; chain copies: 2
Experimental: as §1, with “7.40 and containing MgCl₂ 2 M.” for “7.40.”
as §2

[10] = molecular target: T2, fibrinogen (transgenic, human); assay: as above; conditions: tags: purified from transgenic cow milk, 97% purity; chain copies: 2
Experimental: as §1, with “transgenic” for “human plasma”, “7.40 and containing MgCl₂ 2 M.” for “7.40.”
as §2

T2 sequence (P02671 other isoform, or with tags, fused parts or gaps, chain 1 of 3): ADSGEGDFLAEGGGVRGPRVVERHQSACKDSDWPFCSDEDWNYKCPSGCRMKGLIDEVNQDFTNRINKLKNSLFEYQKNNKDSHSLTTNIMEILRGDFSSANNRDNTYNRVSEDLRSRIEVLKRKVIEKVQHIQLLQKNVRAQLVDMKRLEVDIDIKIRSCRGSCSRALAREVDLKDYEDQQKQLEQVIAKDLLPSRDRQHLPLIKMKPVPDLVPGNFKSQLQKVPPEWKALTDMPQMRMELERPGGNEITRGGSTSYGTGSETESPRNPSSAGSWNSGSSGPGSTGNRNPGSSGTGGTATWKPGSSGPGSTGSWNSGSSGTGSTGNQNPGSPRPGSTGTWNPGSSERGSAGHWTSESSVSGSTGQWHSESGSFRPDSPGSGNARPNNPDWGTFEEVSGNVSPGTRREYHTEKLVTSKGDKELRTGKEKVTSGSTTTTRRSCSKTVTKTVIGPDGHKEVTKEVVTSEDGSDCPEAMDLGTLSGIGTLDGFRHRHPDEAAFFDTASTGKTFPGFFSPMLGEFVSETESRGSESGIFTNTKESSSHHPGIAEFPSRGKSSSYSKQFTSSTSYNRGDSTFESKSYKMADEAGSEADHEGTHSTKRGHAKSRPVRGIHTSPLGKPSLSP
T2 sequence (P02675 31-491, chain 2 of 3): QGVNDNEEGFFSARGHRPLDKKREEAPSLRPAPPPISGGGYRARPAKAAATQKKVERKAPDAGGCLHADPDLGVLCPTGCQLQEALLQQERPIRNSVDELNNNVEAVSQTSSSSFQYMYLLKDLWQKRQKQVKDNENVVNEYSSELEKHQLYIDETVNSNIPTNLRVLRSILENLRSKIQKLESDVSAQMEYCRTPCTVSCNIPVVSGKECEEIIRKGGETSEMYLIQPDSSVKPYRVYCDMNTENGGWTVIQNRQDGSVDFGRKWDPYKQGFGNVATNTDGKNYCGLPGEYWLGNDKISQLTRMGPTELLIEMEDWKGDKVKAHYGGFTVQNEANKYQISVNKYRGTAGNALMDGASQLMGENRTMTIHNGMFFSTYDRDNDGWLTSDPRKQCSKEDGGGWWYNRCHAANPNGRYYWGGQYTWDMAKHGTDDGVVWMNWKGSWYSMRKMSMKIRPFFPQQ
T2 sequence (P02679 other isoform, or with tags, fused parts or gaps, chain 3 of 3): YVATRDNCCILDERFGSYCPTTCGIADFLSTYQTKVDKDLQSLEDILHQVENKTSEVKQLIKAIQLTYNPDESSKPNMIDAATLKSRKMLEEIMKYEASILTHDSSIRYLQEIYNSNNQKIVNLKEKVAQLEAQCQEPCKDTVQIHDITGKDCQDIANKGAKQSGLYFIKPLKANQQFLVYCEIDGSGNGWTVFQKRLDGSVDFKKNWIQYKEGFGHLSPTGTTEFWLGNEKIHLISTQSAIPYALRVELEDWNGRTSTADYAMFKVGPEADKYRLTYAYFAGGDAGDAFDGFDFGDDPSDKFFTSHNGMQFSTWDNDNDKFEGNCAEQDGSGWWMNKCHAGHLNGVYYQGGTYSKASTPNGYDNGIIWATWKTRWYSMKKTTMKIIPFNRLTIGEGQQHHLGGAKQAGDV
T1 sequence (P02671 other isoform, or with tags, fused parts or gaps, chain 1 of 3): as the sequence (P02671 other isoform, or with tags, fused parts or gaps, chain 1 of 3) above
T1 sequence (P02675 31-491, chain 2 of 3): as the sequence (P02675 31-491, chain 2 of 3) above
T1 sequence (P02679 other isoform, or with tags, fused parts or gaps, chain 3 of 3): as the sequence (P02679 other isoform, or with tags, fused parts or gaps, chain 3 of 3) above

Row | Binder | binding result (fibrinogen (plasma) [3]) | binding result (fibrinogen (plasma) [4]) | other results
1 | B1 | – | – | binding result (fibrinogen (plasma) [1]): binds; binding result [2]: binds
2 | B2 | binds | – | –
3 | B3 | binds | – | –
4 | B4 | – | binds | –
5 | B5 | – | – | binding result [5]: binds; binding result (fibrinogen (plasma) [6]): binds
6 | B6 | – | binds | –
7 | B7 | – | binds | –
8 | B8 | – | binds | –
9 | B9 | – | – | binding result [7]: binds; binding result (fibrinogen (plasma) [8]): binds
10 | B10 | binds | – | –
11 | B11 | – | binds | –
12 | B12 | – | – | binding result [5]: binds; binding result (fibrinogen (plasma) [6]): binds
13 | B13 | binds | – | –
14 | B14 | – | – | binding result (fibrinogen (plasma) [9]): binds; binding result [10]: binds
15 | B15 | – | – | binding result [7]: binds; binding result (fibrinogen (plasma) [8]): binds
16 | B16 | binds | – | –
17 | B17 | binds | – | –
18 | B18 | – | binds | –
19 | B19 | binds | – | –
20 | GTCAATGCCAGTCGCTGGAATCCGCCACCCGCATTAGAACCAGGGTTGAC (ssDNA) [SEQ ID NO 82 variant] | binds | – | –
